# From the nanobody polyreactivity screen of Harvey et al. (2022)
# Experiment: yeast display, Sf9 membrane polyspecificity reagent, FACS + sequencing; frameworks hold sequencing errors
# How it was run: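 Galactose induction of a Saccharomyces cerevisiae BJ5465 synthetic nanobody display library ran 36–48 hours. The cells were then stained for 1 hour at 4 °C with 10% biotinylated, detergent-solubilized Sf9 membrane reagent, pulled down on streptavidin microbeads and FACS-sorted into low and high (top ~1%) gates on expression and reagent-binding fluorescence. Labels for polyreactivity follow the gate of origin.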
row,Sequence,polyreactivity (PSR sort gate)
1,QVQLVESGGGLVQAGGSLRLSCAASGRIFTLYTMGWYRQAPGKERELVAAINRGGSTTYADSVKGRFTISRDNAKNTVYLQMNSLKPEDTAVYYCAAYRYTSRVYSYWRGYDYWGQGTQVTVSS,high polyreactivity
2,QVQLVESGGGLVQAGGSLRLSCAASGRIFYWYAMGWYRQAPGKERELVATINSGGSTTYADSVKARFTISRDNAKNTVYLQMNSLKPEDTAVYYCARQRTVKKYYNWGQGTQVTVSS,high polyreactivity
3,QVQLVESGGGLVQAGGSLRLSCAASGRIFKTYAMGWYRQAPGKERELVAAITSGGSTYYADSVKGRFTISRDNAKNTVYLQMNSLKPEDTAVYYCNRVYRYVYSWAYNYWGQGTQVTVSS,high polyreactivity
4,QVQLVESGGGLVQAGGSLRLSCAASGRTFNIYAMGWYRQEPGKERELVAAITNNGGRTYYADSVKGRFTISRDNAKNTVYLQMNSLKPEDTAVYYCAAASPWRYGFEYWGQGTQVTVSS,high polyreactivity
5,QVQLVESGGGLVQAGGSLSLSCAASGRMFLRYAMGWYRQAPGKERELVAVITWSGGSTYYADSVKGRFTISRDNAKNTVYLQMNSLKPEDTAVYYCAADWYPTGFYYWGQGTQVTVSS,low polyreactivity
6,QVQLVESGGGLVQAGGSLRLSCAASGSIFGFYAKGWSRQAPGKEWELVAAITSGDSTHYADSVKGRFTISRDNAKNTVYLQMKSLKPEDTAVNYCAASAPYRYYRSAYSYWGLGTQVTVSS,low polyreactivity
7,QVQLVESGGGLVQAGGSLRLSCAASGITFKRYAMGWYIQAPGKERELVAAISDIGGRTYYADSVKGRFTISRDNAKNTVYLQMNSLKPEDTEVYYCAADYYSPVDWYYYWGQGTQVTVSS,high polyreactivity
8,QVQLVESGGGLVQAGGSLRLSCAASGRTFRPYAMGWDRQAPGKEREFVAAIRSSGDSTYYADSVKGRFTISRDNAKNTVYLQMNSLKPEDTAVYYCAADVYRYRVRGMNYWGQGTQVTVSS,high polyreactivity
9,QVQLVESGGGLVHAGGSLRLSCAASGSIFPSNAMGWYREAPGKERELVAAISQSGGRTYYADSVKGRFTISRDNAKNTVYLQMNSLKPEDTAVYYCAADHRRAGMDYWGQGTQVTVSS,low polyreactivity
10,QVQLVESGGGLVQAGGSLRLSCAASGYTIYQYAMGWYRQAPRKERELVAAISSDASTSYADSVKGRFTISRDNAKNTVYLQMNSLKPEDTAVYYCAADPGPYYDWGYDYWGQGTQVTVSS,low polyreactivity
11,QVQLVESGGGLVQSGGSLRLSCAASGSTLYFKAMGWYRQAPGKERDLVAAITYDGGSTYYADSVKGRFTISRDNAKNTVYLQMNSLKPEDTAVYYCAGRTDGYRNNYWGQGTQVTVSS,high polyreactivity
12,QVQLVESGGGLVQAGGSLRLSCAASGFTFPGNTMGWYRQAPGKERELVAVISRSGGRSYYADSVKGRFTISRDNAKNTVYLQMNSLKPEDTAVYYCAADTSVRFDYWGQGTQVTVSS,high polyreactivity
13,QVQVVESGGGLDQAGGSLRLSCAASGRIFFYYGMGWYRQAPGTERELVASISRGGSTTYADSVKGRFTISRDNAMKTVYLQMNSLKPEDSAVYYCARRYTQIYSSNYGYWGQGTEVTVSS,high polyreactivity
14,QVQLVESGGGLVQAGGSLRLSCAASGFTFDVYAKGLYRQAPGKERELVAAISIGANTYYADSVKGRFTISRDNAKSTVYLQMNSLKPEDTAVYYCAKRAYAPQYGYWGQGTQVTVSS,low polyreactivity
15,QVQLVESGGGLDQAGGSLRLTCAASGSTFRVYAKGSYSQAPRKERELGAAISRSGGSTTDYADSVKGRFTISRENAKNTVYLQINSLNPEDTAVYFCSDRDYKVQKIYDYWGLGTQVTVSS,low polyreactivity
16,QVQLVESGGGLVQAGGSLRVSCAASGSIFSIYAMGWYRQAPGKERELVASITRSSGRTYYADSVKGRFTISRDNAKKTVYLQMNSLKPEDTAVYYCAKDYIPLALDADDYWGQGTQVSVSS,low polyreactivity
17,QVQLVESGGGLVLAGGSLRLSCAASGSIFGPYAMGWYRQAPGKERELVAAIRSGGSTNYADSVKGRFTISRDNAKNTVYLQMNSLKPEDNAVYYCAAEYWGYPYDYWGQGTQVTVSS,low polyreactivity
18,QVQLVESGGGLVQAGGSLRLSCAASGRTFVYYAMGWYRQAPGKERELVAAIRSGGSTNYADSVKGRFTISRDNAKNTVYLQMNSLKPEDTAVYYCNAVHYYYYKGDYWGQGTQVTVSS,high polyreactivity
19,QVQLVESGGGLDQAGGSLRLSCAASGSIFGYNGMGWYRQAPGKESEFVAAISYSGSRTYYADSVKGRFTISRDNAKNTVYLQMNSLKPEDTAVYYCATDDSHYLYRTVSAWEYDYWGQGTQVTVSS,low polyreactivity
20,QVQLVESGGGLVQAGGSLRLTCAASGSIFVGYAMGWYRQAPGKERELVAAITGSGTRTYYADSVKGRFTISRDNAKNTVYLQMNSLKPEDTAVYYCAADYFRYYPYDYWGQGTQVTVSS,low polyreactivity
21,QVQLVESGGGLVQAGGSLRLSCAASGLIFKYYAMGWYREAPGKERELVATITRGGGSTYYADSVKGRFTISRDNAKNTVYLQMNSLKPEDTAVYYCAADYWYVYPRYNPGDYWGQGTQVTVSS,high polyreactivity
22,QVQLVESGGGLVQAGGSLRLSCAASGRIFFNSAMGWYRQAPGKERELVAAIRGGGSTYADSVKGRFTISRDNAKNTVYLQMNSLKPEDTAVYYCAARYSGSPYHTRRYYYWGQGTQVTVSS,high polyreactivity

row,Sequence,polyreactivity (PSR sort gate)
1,QVQLVESGGGLVQAGGSLRLSCAASGSIQYRYAMGWYRQAPGKERELVAAITRSGGSTYYADSVKGRFTISRDNAKNTVYLQMNSLKPEDTAVYYCARQRKVSAHSIEMDYWGQGTQVTVSS,low polyreactivity
2,QVQLVESGGGLVQAGGSLRLSCAASGIIFYYNAMGWYRQAPGKERELVAAIDDRGDSTYYADSVKGRFTISRDNAKNTVYLQMNSLKPEDTAVYYCAARDRYLYFDAMDYWGQGTLVTVSS,low polyreactivity
3,QVQLVESGGGLVQAGGSLRLSCAASGNTFAYYAMGWYRQAPGKERELVAAITSTGVRTYYADSVKGRFTISRDNAKNTVYFQMNSLKPEDTAVYYCNAEYWRVWYLHYYYEYDYWGQGTQVTVSS,high polyreactivity
4,QVQLVESGGGLVKAGGSLRLSCAASGFIFKRNVMGWYRQAPGKETELVARISSRGGSTYYADSVKGRFTISRDNAKNTVYLQMNSLKPEDTEVYYCAADFGTIRVYSGDYWGQGTQVTVSS,high polyreactivity
5,QVQLVESGAGLVQAGGILRLSCAASGRTFYRNTMGWYRQAPGKEREFVAAISATAGRTYYADSVKGRFTISRDNAKNTVYLQMNSLKPEDTAVYYCAAVPLRNRLPNSWPALDYWGQGTQVTVSS,high polyreactivity
6,QVQLVESGGGLVQAGGSLRLSCAASGLIFLPYAMGWYRQAPGKERELVAAIRWSDDSTYYADSVKGRFTILRDNAKNTVYFQMNCLKPEDTAVYYCNAYVYRPSYIFNYYYEYDYWGQGTQVTVSS,high polyreactivity
7,QVQLVESGGGLVQAGGSLRLSCAASGRIFVLYAMGWYRQAPGKERELVAAITSDGSSTYYADSVKGRFTISRDNAKNTVYLQMISLKPEDNAVYYCNKVQGWARYRSGKDMGYWGQGTQVTVSS,low polyreactivity
8,QVQLVESGGGLVQAGGSLRLSCAASGRIFHWYAMGWYRQAPGKERELVAAIRWTGGSTYYADSVKGRFTISRDNAKNTVYLQMNSLKPEDTAVYYCAAKGYTGIFYEMDYWGQGTQVTVSS,low polyreactivity
9,QVQLVESGGGLVQAGGSLRLSCAASGSTFTRNAMGWYRQAPGKERELVATISSGGSTNYADSVKGRFTISRDNAKNTVYLQMNSLKPEDTAVYYCAKRSLYRYYYWGQGTQVTVSS,high polyreactivity
10,QVQLVESGGGLVQAGGSLRLSCAASGYTFYYYAMGWYRQAPGKERELVAAISWSGGSTYYADSVKGRVTISRDNAKNTVYLQMNSLKPEDTAVYYCAAGVDLYYDLYDYEYWGQGTQVTVSS,low polyreactivity
11,QVQLVESGGGLVQAGGSLRLSCAASGFTFVWYAMGWYRPAPGKERELVAAISRRGTRTYYADSVKGRFTISRDNAKNTVYLQMNSLKPEDTAVYYCAASNGYQAVTYDYWGQGTQVTVSS,high polyreactivity
12,QVQLVESGGGLVQAGGSLRLSCAASGRIFTYYTMGWYRQAPAKYREFVAAISWSGTSTYYADSVKGRFTISRDNAKNTFYLQMNSLKPEDTAVYYFAARDPPRAGYDYWGQGTHVTVSS,high polyreactivity
13,QVQLVESGGGLVQAGGSLRLSCAASGRIFNIYALGWYRQAPGKERELVAAISGSGSTYYADSVKGRFTISRDNAKNTVYLQMNSLKPEDTAVYYCAARSLVRYYHNANYYPYYYWGQGTQVTVSS,high polyreactivity
14,QVQLVESGGGLVQAGGSLRLSCAASGITFVHYAMGWYRQAPGKERELVAAISSGGGSTYYADSVKGRFTISRDNAKNTVYLQMNSLKPGVTAVYYCAAYVLPYGEYDYWGQGTQVTVSS,low polyreactivity
15,QVQLVESGGGLVQAGGSLRLSCAASGSSFGSNAMGWSRPAPGKERELVAAITGGDVSTYYADSVKGRFTISRDNAKNTVYLQMNSLKPEDTAVYYCNAEYARPAMDYWGQGTQVTVSS,low polyreactivity
16,QVHLVESGGGLVQAGGSLRLSCAASGRNFSSYAMGWYRQAPGKEWELVAAIRRGGGSTSYADSVKGRFTISRDNAKKTVYLQMNSLKPEDTAVYYCAADSPRGQVHYIGGYWGHGTQVTVSS,low polyreactivity
17,QVQLQESGGGLVQAGGSLRLSCAASGTISPLPAMGWYRQAPGKEREFVAGIDTGAITNYADSVKGRFTISRDNAKNTVYLQMNSLKPEDTPVYYCAATFYYSGHDDYWGQGTQVPVSS,low polyreactivity
18,QFQLVEAGGGLVQAGGSLRLSCAASGSIFTYAMGWYRQAPGKEREFVAAISRSGGRTYYADSVKGRFTMSRDNAKNTVYFQMNSLKPDDTAVYYCAPLLLKDYDYWGQGTQVTVSS,low polyreactivity
19,QVQLVESGGGLLQAGGSLRLSCAASGRIFYGYTMVRYRQAPGKERELVASITIRGSRTYYADSVKGRFTISRDNAKNTVYLQMISQKPEDTAVSYCAADFVPARTVHRYDYWGQGTQVTVSS,low polyreactivity
20,QVQLVESGGGLVQAGGSLRLSCAASGLIFPKNAMGWYRQAPGKERELVAAISSSDSSTYADSVKGRFTISRDNAKNTVYLQMNSLKPEDTAVYYCAAASYNWLDWVTREYWGQGTQVTVSS,low polyreactivity
21,QAQRVESGGGLGQAGGSLRLSCAASGRTFVRYTMGWYRQAPGKERELVAAISRSGGSTYYADSVKRRYTISRANAKNTVYLQLNSLKPEDTAVYYCAARRNAYHRDYYWGQGTQVTVSS,high polyreactivity
